Among the data in PMC9328315, “Streptococcus pneumoniae binds collagens and C1q via the SSURE repeats of the PfbB adhesin” (Molecular Microbiology, 2022) are Kd values, retold here.

Holding throughout (assay): ELISA; titration: wells sensitized with 1 μg/ml of collagen type I, II, III, IV, VI or C1q; increasing concentrations of C‐SSURE or N‐SSURE (0,016–10 μg/ml), detected with anti‐His antibody; dissociation constants calculated from the titration curves (Figure 3c,d)
Assay [1] concerns the target type III collagen (calf (from calfskin)) (UniProt P04258).
For assay [2], the target named is type I collagen (calf (from calfskin)) (UniProt P02453).
The target of assay [3] is complement component C1q (human) (UniProt P02745).
The target of a further assay is human type IV collagen (human, UniProt P02462 173-1669; P08572 184-1712). The following applies: both partners purified.
The next assay concerns the target human type VI collagen (human, UniProt P12109 20-1028; P12110 21-1019; P12111 26-3177). The settings on record: both partners purified.

Sequence of human type IV collagen (P02462 173-1669, chain 1 of 2): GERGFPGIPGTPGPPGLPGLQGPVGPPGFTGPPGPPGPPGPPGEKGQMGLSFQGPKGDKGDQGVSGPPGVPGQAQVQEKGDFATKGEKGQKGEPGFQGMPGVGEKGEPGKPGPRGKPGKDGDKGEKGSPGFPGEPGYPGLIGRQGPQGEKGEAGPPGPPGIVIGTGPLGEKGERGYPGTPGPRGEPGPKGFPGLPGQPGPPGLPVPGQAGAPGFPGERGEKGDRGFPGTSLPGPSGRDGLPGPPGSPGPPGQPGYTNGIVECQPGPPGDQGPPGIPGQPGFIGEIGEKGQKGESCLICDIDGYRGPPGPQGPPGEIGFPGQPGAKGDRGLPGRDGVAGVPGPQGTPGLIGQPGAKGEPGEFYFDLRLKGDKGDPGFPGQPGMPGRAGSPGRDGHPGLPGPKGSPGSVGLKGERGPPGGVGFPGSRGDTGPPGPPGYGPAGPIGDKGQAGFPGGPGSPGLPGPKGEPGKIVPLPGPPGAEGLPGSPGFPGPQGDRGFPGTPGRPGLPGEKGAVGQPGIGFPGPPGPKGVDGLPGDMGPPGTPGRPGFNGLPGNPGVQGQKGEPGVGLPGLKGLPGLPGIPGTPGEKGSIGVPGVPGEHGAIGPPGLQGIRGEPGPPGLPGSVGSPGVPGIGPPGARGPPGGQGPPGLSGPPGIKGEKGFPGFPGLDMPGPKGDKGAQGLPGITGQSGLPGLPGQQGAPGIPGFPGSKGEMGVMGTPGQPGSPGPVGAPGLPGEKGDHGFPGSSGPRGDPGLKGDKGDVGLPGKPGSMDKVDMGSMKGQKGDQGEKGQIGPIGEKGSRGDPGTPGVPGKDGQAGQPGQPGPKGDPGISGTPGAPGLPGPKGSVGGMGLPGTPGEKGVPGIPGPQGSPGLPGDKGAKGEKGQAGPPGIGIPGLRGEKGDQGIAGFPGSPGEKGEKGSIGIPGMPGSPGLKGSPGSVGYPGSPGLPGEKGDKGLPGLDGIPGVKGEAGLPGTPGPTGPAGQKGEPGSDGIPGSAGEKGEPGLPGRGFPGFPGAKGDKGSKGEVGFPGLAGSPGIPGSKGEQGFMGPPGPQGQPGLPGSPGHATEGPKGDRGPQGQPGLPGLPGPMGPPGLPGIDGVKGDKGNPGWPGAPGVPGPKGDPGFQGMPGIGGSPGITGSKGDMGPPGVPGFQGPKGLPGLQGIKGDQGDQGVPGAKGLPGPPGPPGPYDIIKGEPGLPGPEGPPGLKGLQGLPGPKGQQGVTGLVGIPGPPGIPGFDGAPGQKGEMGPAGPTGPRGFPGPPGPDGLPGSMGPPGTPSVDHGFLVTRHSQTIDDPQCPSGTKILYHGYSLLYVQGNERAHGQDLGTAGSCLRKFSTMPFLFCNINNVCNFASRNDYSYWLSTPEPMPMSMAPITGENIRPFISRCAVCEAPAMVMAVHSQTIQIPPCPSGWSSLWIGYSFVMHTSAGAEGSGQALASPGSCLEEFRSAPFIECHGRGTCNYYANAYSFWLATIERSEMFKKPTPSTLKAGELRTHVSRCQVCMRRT
Sequence of human type IV collagen (P08572 184-1712, chain 2 of 2): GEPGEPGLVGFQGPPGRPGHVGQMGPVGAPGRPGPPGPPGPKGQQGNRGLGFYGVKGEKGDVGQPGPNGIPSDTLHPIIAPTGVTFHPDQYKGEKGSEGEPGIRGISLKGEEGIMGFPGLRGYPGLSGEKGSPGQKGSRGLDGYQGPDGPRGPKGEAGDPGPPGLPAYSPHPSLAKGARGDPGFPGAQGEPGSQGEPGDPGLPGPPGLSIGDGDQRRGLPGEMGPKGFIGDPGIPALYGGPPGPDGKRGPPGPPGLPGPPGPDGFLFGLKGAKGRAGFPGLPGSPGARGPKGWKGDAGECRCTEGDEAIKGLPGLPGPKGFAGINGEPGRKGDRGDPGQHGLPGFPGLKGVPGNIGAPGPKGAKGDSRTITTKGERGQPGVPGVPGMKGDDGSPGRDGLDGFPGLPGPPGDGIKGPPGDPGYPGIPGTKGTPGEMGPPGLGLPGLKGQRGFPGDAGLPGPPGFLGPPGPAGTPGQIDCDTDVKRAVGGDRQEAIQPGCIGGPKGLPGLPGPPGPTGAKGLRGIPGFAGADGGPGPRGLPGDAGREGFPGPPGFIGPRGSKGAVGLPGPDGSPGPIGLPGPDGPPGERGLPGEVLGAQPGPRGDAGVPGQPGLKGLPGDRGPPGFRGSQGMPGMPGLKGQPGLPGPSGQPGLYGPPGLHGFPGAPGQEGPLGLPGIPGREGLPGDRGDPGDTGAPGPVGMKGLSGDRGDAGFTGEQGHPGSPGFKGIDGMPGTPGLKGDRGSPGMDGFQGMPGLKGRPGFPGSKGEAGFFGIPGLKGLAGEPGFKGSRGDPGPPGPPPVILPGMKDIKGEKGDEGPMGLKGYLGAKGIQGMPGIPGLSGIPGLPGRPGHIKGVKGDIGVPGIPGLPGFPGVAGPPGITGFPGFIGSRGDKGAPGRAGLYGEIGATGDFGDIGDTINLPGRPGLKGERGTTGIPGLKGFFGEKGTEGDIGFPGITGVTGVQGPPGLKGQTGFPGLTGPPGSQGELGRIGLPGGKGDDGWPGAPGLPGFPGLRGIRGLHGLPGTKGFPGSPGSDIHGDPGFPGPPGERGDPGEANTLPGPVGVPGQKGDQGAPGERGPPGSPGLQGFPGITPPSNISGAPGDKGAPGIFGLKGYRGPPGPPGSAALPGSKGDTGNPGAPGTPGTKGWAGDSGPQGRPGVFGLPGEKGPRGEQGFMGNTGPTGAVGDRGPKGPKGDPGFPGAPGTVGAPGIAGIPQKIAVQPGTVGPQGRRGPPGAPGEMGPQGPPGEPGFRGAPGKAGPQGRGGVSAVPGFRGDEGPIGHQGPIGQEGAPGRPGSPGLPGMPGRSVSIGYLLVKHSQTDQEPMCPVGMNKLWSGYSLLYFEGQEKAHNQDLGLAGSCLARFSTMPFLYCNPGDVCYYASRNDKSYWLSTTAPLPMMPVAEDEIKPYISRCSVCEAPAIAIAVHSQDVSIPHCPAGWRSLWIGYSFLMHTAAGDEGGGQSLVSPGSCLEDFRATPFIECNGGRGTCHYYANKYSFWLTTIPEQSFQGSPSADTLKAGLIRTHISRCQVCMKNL
Sequence of complement component C1q (human) (P02745 23-245, chain 1 of 3): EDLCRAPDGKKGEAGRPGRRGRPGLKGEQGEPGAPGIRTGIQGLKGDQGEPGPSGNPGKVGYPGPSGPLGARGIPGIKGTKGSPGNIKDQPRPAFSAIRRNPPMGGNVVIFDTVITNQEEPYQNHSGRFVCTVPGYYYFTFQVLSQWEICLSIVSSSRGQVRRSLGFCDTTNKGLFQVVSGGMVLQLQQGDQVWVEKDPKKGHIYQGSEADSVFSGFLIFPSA
Sequence of complement component C1q (human) (P02746 28-253, chain 2 of 3, further chain): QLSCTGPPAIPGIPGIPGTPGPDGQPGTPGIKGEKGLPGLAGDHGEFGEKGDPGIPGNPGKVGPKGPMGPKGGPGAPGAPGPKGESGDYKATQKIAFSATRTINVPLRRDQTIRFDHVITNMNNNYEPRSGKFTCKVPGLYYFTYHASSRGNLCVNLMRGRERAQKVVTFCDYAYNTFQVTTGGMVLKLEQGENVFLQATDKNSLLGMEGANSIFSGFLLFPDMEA
Sequence of complement component C1q (human) (P02747 29-245, chain 3 of 3, further chain): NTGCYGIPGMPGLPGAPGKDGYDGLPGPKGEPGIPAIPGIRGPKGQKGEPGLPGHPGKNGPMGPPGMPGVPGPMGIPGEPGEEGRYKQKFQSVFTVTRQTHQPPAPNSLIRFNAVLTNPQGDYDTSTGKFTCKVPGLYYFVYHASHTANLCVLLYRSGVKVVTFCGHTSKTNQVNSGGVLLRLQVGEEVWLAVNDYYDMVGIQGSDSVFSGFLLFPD
Sequence of type III collagen (calf (from calfskin)) (P04258 whole entry): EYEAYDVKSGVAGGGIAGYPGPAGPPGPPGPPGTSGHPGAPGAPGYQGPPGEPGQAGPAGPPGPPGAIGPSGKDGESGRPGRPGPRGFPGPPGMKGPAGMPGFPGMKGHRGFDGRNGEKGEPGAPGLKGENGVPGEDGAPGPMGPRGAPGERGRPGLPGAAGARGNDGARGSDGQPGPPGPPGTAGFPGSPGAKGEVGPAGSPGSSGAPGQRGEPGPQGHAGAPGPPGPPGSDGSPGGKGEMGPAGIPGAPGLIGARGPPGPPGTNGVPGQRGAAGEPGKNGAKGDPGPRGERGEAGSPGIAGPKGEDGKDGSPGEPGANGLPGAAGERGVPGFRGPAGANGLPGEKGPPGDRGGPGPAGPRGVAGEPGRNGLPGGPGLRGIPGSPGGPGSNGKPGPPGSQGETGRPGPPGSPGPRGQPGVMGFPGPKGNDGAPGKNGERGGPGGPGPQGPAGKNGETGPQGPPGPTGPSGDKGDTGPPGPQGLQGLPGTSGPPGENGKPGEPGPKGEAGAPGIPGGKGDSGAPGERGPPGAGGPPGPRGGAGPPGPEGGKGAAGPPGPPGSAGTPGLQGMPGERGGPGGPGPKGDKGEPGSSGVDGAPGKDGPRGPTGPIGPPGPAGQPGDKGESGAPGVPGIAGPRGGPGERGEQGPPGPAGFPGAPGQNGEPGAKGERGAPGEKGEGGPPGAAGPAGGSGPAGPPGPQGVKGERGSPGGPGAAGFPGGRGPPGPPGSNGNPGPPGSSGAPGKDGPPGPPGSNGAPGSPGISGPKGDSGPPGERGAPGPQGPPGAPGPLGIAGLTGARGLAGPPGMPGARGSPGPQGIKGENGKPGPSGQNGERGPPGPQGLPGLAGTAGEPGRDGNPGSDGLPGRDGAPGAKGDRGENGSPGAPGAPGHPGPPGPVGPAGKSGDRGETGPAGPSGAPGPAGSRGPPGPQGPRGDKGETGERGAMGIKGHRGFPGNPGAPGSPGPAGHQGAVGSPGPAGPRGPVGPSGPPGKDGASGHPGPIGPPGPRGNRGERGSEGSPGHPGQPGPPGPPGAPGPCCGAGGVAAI

Turning to “C‐SSURE, recombinant polyhistidine‐tagged polypeptide encompassing amino acids 902–1053 (C‐terminal SSURE domain) of the PfbB protein (domain or fragment)”, the Kd in assay [1] is 1.16 µM; in assay [2], 1.72 µM; in assay [3] it was 5.21 µM.

B1: N‐SSURE, recombinant polyhistidine‐tagged polypeptide encompassing amino acids 144–293 (N‐terminal SSURE domain) of the PfbB protein (domain or fragment)
chain: AETTPEQVKGGVKENTKDSIDVPAAYLEKAEGKGPFTAGVNQVIPYELFAGDGMLTRLLLKASDNAPWSDNGTAKNPALPPLEGLTKGKYFYEVDLNGNTVGKQGQALIDQLRANGTQTYKATVKVYGNKDGKADLTNLVATKNVDININ
notes: also called N‐terminal repeat; SSURE 1
In the case of B1, the Kd was 1.58 ± 0.1 µM with human type IV collagen and 1.2 ± 0.3 µM with human type VI collagen.

Usually Kd stands for the concentration at which binding is half-saturated.
